Values quoted from earlier work as cited in article PMC8990303.
Read-outs that look alike come from different tables or passages of the source. One block for each substance: values may come before it.

Tests used:
[1] = molecular target: Porcine pancreatic alpha-amylase (PPA) (Sus scrofa) (UniProt P00690)
[2] = molecular target: Human salivary alpha-amylase (HSA) (Homo sapiens) (UniProt P0DUB6)
[3] = molecular target: Yellow mealworm alpha-amylase (TMA) (Tenebrio molitor) (UniProt P56634)
[4] = molecular target: Yellow mealworm alpha-amylase (TMA) (Tenebrio molitor) (UniProt P56634); remark: listed apart in the source
[5] = molecular target: Porcine alpha-amylase (Sus scrofa) (UniProt P00690)
[6] = molecular target: Porcine alpha-amylase (Sus scrofa) (UniProt P00690); remark: listed apart in the source
[7] = molecular target: Porcine trypsin (Sus scrofa) (UniProt P00761)
[8] = molecular target: Porcine trypsin (Sus scrofa) (UniProt P00761); remark: listed apart in the source
[9] = molecular target: Factor XIIa (Homo sapiens) (UniProt P00748)
[10] = molecular target: Bovine pancreatic trypsin (Bos taurus) (UniProt P00760)
[11] = molecular target: Factor XIa (Homo sapiens) (UniProt P03951)
[12] = molecular target: Porcine pancreatic alpha-amylase (PPA) (Sus scrofa) (UniProt P00690); remark: listed apart in the source
[13] = molecular target: Bovine trypsin (Bos taurus) (UniProt P00760)

UniProt P00761, sequence (P00761 9-231): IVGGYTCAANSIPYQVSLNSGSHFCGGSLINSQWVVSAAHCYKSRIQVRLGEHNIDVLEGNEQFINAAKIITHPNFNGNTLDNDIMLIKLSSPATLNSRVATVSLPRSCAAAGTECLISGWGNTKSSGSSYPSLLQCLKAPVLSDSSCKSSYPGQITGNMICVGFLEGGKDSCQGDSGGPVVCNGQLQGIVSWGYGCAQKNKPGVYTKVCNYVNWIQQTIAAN
UniProt P56634, sequence (P56634 whole entry): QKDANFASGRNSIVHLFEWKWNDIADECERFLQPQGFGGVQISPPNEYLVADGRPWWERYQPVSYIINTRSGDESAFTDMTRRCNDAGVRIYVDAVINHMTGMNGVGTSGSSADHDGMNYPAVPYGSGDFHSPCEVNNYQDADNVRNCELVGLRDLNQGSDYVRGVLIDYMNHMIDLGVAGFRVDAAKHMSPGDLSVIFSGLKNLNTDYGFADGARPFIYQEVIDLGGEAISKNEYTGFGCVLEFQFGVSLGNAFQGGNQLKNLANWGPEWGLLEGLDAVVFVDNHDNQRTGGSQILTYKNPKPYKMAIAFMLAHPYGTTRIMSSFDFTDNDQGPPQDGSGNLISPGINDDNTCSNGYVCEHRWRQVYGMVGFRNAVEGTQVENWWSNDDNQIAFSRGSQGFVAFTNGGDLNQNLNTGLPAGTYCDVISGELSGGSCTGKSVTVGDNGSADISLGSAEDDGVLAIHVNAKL
UniProt P0DUB6, sequence (P0DUB6 16-511): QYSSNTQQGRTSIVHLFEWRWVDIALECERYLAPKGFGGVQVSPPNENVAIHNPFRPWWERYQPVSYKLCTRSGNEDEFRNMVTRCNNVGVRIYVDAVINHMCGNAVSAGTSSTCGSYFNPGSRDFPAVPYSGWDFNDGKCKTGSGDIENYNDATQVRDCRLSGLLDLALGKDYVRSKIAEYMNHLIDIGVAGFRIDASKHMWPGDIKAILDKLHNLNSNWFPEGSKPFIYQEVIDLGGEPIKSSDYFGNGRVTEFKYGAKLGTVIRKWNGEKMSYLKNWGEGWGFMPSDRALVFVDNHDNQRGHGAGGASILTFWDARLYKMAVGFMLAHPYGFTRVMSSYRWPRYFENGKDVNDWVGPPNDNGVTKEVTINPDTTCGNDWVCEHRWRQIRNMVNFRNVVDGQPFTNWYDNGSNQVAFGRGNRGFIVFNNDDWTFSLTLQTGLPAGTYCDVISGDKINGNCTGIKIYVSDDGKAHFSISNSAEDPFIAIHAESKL
UniProt P03951, sequence (P03951 388-625): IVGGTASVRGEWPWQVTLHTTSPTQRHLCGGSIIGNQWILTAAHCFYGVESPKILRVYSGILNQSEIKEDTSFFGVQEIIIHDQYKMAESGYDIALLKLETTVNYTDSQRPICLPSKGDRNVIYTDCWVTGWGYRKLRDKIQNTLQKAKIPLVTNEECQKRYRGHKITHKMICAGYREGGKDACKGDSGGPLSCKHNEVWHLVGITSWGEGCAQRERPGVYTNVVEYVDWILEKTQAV
UniProt P00748, sequence (P00748 whole entry, looked up): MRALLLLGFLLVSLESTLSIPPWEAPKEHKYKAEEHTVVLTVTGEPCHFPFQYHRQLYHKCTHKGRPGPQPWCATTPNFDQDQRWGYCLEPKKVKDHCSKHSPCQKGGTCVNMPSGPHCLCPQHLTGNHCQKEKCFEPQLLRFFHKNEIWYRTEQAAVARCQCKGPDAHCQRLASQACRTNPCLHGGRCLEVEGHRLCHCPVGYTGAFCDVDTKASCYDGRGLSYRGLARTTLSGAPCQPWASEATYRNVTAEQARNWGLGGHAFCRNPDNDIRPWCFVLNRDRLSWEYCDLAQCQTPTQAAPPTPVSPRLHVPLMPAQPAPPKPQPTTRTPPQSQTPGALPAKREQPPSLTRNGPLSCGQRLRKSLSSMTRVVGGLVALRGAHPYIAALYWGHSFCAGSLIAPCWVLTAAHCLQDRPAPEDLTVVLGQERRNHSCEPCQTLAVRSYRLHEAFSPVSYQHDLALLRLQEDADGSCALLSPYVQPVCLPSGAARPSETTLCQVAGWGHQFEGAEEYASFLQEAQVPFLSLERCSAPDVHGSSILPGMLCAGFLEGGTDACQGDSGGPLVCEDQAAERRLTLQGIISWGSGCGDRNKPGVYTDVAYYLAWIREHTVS

Ki [1]: 57.3 nM | Ki [2]: 0.29 nM | Ki [3]: 0.85 nM
Substance: 0.19 alpha-amylase inhibitor (from UniProt P01085)

Ki [4]: 0.13 nM
Substance: 0.28 alpha-amylase inhibitor (WMAI-1) (from UniProt P01083)

Ki [12]: 11 nM | Ki [13]: 1.2 nM
Substance: Ragi bifunctional alpha-amylase/trypsin inhibitor (RBI) (from UniProt P01087)

More lines, now with the values behind:

Substance: CM3 (from UniProt P17314)
Ki [5]: 600 nM | Kd [6]: 340 nM | Ki [7]: 10.4 nM | Kd [8]: 36 nM

Substance: Corn Hageman factor inhibitor (CHFI) (from UniProt P01088)
Ki [9]: 1 nM | Ki [10]: 2.1 nM | Ki [11]: 5400 nM
